Assay results published in US20230279131A1 (published 2023).
One block for each binder: values may come before it.

Assays:
[1] = biological target: T1, D2 domain of human IL2Rγ extracellular domain expressed with a C-terminal myc-myc-hexahistidine tag (human); test: SPR Biacore 4000, mAb captured on anti-hFc, 25°C
T1 construct: whole entry is the tagged construct
T1 chain: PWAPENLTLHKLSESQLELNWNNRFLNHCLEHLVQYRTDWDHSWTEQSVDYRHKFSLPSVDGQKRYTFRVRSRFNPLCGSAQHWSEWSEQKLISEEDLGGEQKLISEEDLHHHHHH
Procedure: (§1) Equilibrium dissociation constants (KD values) for IL-2Rγ binding to purified anti-IL2Rγ monoclonal antibodies were determined using a Biacore 4000 instrument equipped with a real-time surface plasmon resonance biosensor. All binding studies were performed in 10 mM HEPES, 150 mM NaCl, 3 mM EDTA, and 0.05% v/v Surfactant Tween-20, pH 7.4 (HBS-ET) running buffer at 25° C. and 37° C. The Biacore sensor surface was first derivatized by amine coupling with a monoclonal mouse anti-human Fc antibody (GE, #BR-1008-39) to capture anti-IL2Rγ monoclonal antibodies.

[2] = biological target: T1, D2 domain of human IL2Rγ extracellular …; test: SPR Biacore 4000, mAb captured on anti-hFc, 37°C
Procedure: as §1

[3] = biological target: T2, human IL-2Rγ expressed on cells (human, UniProt P31785 23-369); test: flow cytometry on NK-92 cells, antibody at 10 µg/ml; low end of the range, tied to H4H12859P by Table 9-1
T2 construct: whole, on cells; endogenous receptor on human cells; also called IL-2Rgamma; CD132
T2 sequence (looked up): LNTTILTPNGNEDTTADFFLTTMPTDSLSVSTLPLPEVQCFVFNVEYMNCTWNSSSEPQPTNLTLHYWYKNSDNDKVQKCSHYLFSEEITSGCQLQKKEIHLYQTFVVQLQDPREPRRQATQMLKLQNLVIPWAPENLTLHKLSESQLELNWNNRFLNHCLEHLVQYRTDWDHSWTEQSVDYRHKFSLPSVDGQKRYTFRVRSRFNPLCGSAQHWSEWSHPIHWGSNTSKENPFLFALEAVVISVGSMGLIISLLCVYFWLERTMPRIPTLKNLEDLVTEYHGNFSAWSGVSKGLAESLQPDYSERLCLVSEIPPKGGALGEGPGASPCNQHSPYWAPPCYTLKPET

[4] = biological target: T2, human IL-2Rγ expressed on cells; test: flow cytometry on NK-92 cells, antibody at 10 µg/ml; high end of the range, tied to 'H4H13841P' (taken as H4H13541P) by Table 9-2
[5] = biological target: T2, human IL-2Rγ expressed on cells; test: flow cytometry on NK-92 cells, antibody at 10 µg/ml; low end of the range, tied to H4H13538P by Table 9-2
[6] = biological target: T2, human IL-2Rγ expressed on cells; test: flow cytometry on NK-92 cells, antibody at 10 µg/ml; high end of the range, tied to H4H12889P by Table 9-1
[7] = biological target: T2, human IL-2Rγ expressed on cells; test: flow cytometry on Jurkat cells, antibody at 10 µg/ml; high end of the range, tied to H4H12889P by Table 9-1
[8] = biological target: T3, D1 domain of human IL-2Rγ extracellular domain expressed with a C-terminal myc-myc-hexahistidine tag (human); test: SPR Biacore 4000, mAb captured on anti-hFc, 25°C
T3 construct: whole entry is the tagged construct
T3 chain: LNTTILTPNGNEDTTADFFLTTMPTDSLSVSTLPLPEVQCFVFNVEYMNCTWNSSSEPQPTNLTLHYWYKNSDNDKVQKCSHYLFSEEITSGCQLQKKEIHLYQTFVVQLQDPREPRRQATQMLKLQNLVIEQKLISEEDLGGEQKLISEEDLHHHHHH
Procedure: as §1

[9] = biological target: T3, D1 domain of human IL-2Rγ extracellular …; test: SPR Biacore 4000, mAb captured on anti-hFc, 37°C
Procedure: as §1

[10] = biological target: T4, Human IL2Rγ extracellular domain expressed with a C-terminal myc-myc-hexahistidine tag (human); test: SPR Biacore 4000, mAb captured by anti-hFc, HBS-ET, 25C
T4 construct: also called hIL-2Rg-MMH; hIL-2RG-MMH
T4 chain: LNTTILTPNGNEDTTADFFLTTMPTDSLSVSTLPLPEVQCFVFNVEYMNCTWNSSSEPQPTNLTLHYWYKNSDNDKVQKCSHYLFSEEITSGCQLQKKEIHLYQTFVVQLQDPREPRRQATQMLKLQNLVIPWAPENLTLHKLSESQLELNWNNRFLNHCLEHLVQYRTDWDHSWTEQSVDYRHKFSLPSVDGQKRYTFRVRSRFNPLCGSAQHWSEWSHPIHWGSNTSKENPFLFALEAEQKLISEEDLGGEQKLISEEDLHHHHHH
Procedure: as §1

[11] = biological target: T4, Human IL2Rγ extracellular domain …; test: SPR Biacore 4000, mAb captured by anti-hFc, HBS-ET, 37C
Procedure: as §1

100 nM Ag Bound [1]: 10 RU
100 nM Ag Bound [2]: 2 RU
B1: H4H12874P (antibody, human IgG4 S228P, kappa, V domains shown)
VH: QVQLVESGGGVVQPGRSLRLSCAASGFNFRNFGMHWVRQAPGKGLEWVAGILYDGSSKYYADSVKDRFTISRDNSKNTLFLQMNSLRAEDTAMYYCAKEEDTAMVPFDSWGPGTLVTVSS
VL: DIQLTQSPSFLSASVGDRVTITCWASQGISSYLAWYQQKPGKAPTLLIYAASTLQSGVPSRFSGSGSGTEFTLTISSLQPEDFASYYCQQLKSYPLTFGGGTKVEIKR
notes: anti-IL2Rγ mAb expressed with human IgG4 Fc

binding ratio (sample MFI over unstained MFI) [3]: 1 ratio
B2: H4H12859P (antibody, human IgG4 S228P, kappa, V domains shown)
VH: QVQLVQSGAEVKKPGASVRVSCKASGYTFTDYDIHWVRQAPGHGLEWMGWINPNSGGTNYAQKFQGRVTMTRDTSISTVYMDLSRLRSDDTAVYYCARADYSSSYYYYGMDVWGQGTTVTVSS
VL: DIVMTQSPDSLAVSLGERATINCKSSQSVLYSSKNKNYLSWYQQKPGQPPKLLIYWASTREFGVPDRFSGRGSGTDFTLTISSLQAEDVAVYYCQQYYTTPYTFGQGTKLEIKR
notes: anti-IL2Rγ human antibody, human IgG4 Fc

binding ratio (sample MFI over unstained MFI) [4]: 37 ratio
B3: H4H13541P (antibody, human IgG4 S228P, kappa, V domains shown)
VH: EVQLVESGGGVVRPGGSLRLSCAASGFIFDDYDMSWVRQPPGRGLEWVSGIDWFGGTRGYADSMKGRFTISRDNAKNSLYLQMNSLRVEDTAFYYCARGGAIVGAVTPFDYWGQGTLVTVSS
VL: DIQMTQSPSSLSASVGNRVTLSCRASQSINTYLSWYQQRPGKAPKLLIYAASSLQSGVPSRFSGSGAGTDFTLTISSLQPEDFATYYCQQSYSAPLTFGGGTKVEIKR
notes: anti-IL2Rγ human antibody, human IgG4 Fc; also called H4H13841P

binding ratio (sample MFI over unstained MFI) [5]: 1 ratio
B4: H4H13538P (antibody, human IgG4 S228P, kappa, V domains shown)
VH: EVQLVESGGGLVQPGGSLGLSCAASGFTFSNYAMSWVRQAPGKGLEWVSAVSGGGGGTYYADSVKGRFTISRDNSKNTVLLQMNSLRAEDTAVYYCARGRTGGLDYWGPGTLVTVSS
VL: DVVMTQSPLSLPVIFGQPASISCRSSQSLVDSDGNTYLNWLQQRPGQSPRRLIYEVSNRDSGVPDRFSGSGSGTDFTLTISRVEAEDVGIYYCMQGTRWPPTFGGGTKVEIKR
notes: as for B2

binding ratio (sample MFI over unstained MFI) [6]: 94 ratio
binding ratio (sample MFI over unstained MFI) [7]: 19 ratio
B5: H4H12889P (antibody, human IgG4 S228P, kappa, V domains shown)
VH: EVQLVESGGGLVQPGGSLRLSCAASGFIFSSYEMHWVRQAPGKGLEWISYISSSGTTIYYADSVKGRFTISRDNAKNSLYLHMNSLRAEDTAVYYCTRARITGTFDVFDIWGQGTMVTVSS
VL: DIQMTQSPSSLSASVGDRVTITCRASQSISSYLNWYQQKPGKAPKLLIFAASNLQSGVPSRFSGSRSGTDFTLTISSLQPEDFATYYCQQNYNIPYTFGQGTKLEIKR
notes: anti-IL2Rγ human antibody, human IgG4 Fc; also called REGN7257

100 nM Ag Bound [8]: 8 RU
100 nM Ag Bound [9]: 2 RU
B6: H4H12926P2 (antibody, human IgG4 S228P, kappa, V domains shown)
VH: QVQLQQSGPGLVKPSQTLSLTCAISGDSVSSNIAAWNWIRLSPSRGLEWLGRTFFRSTWFYDYSLSVKGRITINPDTSKNQFSLHLNSVTPEDAAVYYCARTGRRWSLDYWGQGTLVTVSS
VL: not shown
notes: as for B1

100 nM Ag Bound [10]: 13 RU
100 nM Ag Bound [11]: 2 RU
B7: H4H12926P2 (antibody, human IgG4 S228P, kappa, V domains shown)
VH: B6 VH
VL: not shown
notes: anti-IL2Rgamma monoclonal antibody expressed with human IgG4 Fc

100 nM Ag Bound [1]: 14 RU
100 nM Ag Bound [2]: 2 RU
B8: H4H12927P2 (antibody, human IgG4 S228P, kappa, V domains shown)
VH: EVQLVESGGGVVRPGGSLRLSCATSGFTFDDYGMSWVRQVPGKGLEWVSSVNRNGGTTDYADSVKGRFTISRDNAKRSLFLQMNSLRAEDTALYHCATGELFFDYWGQGTLVTVSS
VL: not shown
notes: as for B1

100 nM Ag Bound [10]: 18 RU
100 nM Ag Bound [11]: 5 RU
B9: H4H12927P2 (antibody, human IgG4 S228P, kappa, V domains shown)
VH: B8 VH
VL: not shown
notes: as for B7
